Results published in patent US20190276511A1 (BIONTECH RNA PHARMACEUTICALS, published 2019).

Legend:
CD27-Fc = target: T1, CD27-Fc (human, UniProt P26842 20-191); test: ELISA, coated receptor-Fc
T1 construct: extracellular domain; hinge included for covalent assembly; also called CD27 receptor-Fc fusion protein; not shown: human Fc gamma 1 region including the hinge region
T1 sequence (looked up): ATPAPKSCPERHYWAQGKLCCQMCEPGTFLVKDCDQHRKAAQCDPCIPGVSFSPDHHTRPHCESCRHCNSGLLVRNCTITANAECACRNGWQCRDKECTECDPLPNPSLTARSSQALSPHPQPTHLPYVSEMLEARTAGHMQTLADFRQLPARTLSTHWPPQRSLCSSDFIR
Experimental: (§1) Receptor binding of the EHD2-scDuokines was analyzed by ELISA using fusion proteins of the extracellular region of CD40, CD27 and 4-1BB, respectively, with the human Fcγ1 region including the hinge region for covalent assembly (CD40-Fc, CD27-Fc, 4-1BB-Fc). Receptor-Fc fusion proteins (200 ng/well) were coated overnight at 4° C. and remaining binding sites were blocked with PBS, 2% skimmed milk powder (2% MPBS).

CD40-Fc = target: T2, CD40-Fc (human, UniProt P25942 21-193); test: ELISA, coated receptor-Fc
T2 construct: extracellular domain; hinge included for covalent assembly; also called CD40 receptor-Fc fusion protein; not shown: human Fc gamma 1 region including the hinge region
Experimental: as §1

CD40 receptor on cells = CD40 receptor on cells (human, UniProt P25942 21-277); test: cell-based or functional assay
4-1BB-Fc = target: T3, 4-1BB-Fc (human, UniProt Q07011 24-186); test: ELISA, coated receptor-Fc
T3 construct: extracellular domain; hinge included for covalent assembly; also called 4-1BB receptor-Fc fusion protein; not shown: human Fc gamma 1 region including the hinge region

T2 sequence (P25942 21-193 limits assumed): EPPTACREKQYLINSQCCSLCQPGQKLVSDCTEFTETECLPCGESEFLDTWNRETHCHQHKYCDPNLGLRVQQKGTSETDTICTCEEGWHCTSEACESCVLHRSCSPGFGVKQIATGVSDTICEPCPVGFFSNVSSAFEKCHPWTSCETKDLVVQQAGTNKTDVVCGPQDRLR
CD40 receptor on cells, sequence (P25942 21-277): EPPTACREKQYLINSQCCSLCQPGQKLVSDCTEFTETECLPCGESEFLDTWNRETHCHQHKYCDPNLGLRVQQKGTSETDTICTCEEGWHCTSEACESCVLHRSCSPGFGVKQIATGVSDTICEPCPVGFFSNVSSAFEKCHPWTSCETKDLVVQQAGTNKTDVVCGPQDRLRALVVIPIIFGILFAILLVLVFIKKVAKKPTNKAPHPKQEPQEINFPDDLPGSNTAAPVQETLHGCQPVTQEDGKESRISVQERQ

EC50 (CD27-Fc): 2.03 nM
EC50 (CD40-Fc): 4.05 nM
Receptor activation (EC50, nM), IL-8 release from HT1080 cells (CD40 receptor on cells): 2 nM
binding result (4-1BB-Fc): no binding (tested: 100 nM (FIG. 16))
B1: scCD40L-EHD2-scCD27L (ligand)
chain: GDQNPQIAAHVISEASSKTTSVLQWAEKGYYTMSNNLVTLENGKQLTVKRQGLYYIYAQVTFCSNREASSQAPFIASLCLKSPGRFERILLRAANTHSSAKPCGQQSIHLGGVFELQPGASVFVNVTDPSQVSHGTGFTSFGLLKLGGGSGGGGDQNPQIAAHVISEASSKTTSVLQWAEKGYYTMSNNLVTLENGKQLTVKRQGLYYIYAQVTFCSNREASSQAPFIASLCLKSPGRFERILLRAANTHSSAKPCGQQSIHLGGVFELQPGASVFVNVTDPSQVSHGTGFTSFGLLKLGGGSGGGGDQNPQIAAHVISEASSKTTSVLQWAEKGYYTMSNNLVTLENGKQLTVKRQGLYYIYAQVTFCSNREASSQAPFIASLCLKSPGRFERILLRAANTHSSAKPCGQQSIHLGGVFELQPGASVFVNVTDPSQVSHGTGFTSFGLLKLGGSGGDFTPPTVKILQSSCDGGGHFPPTIQLLCLVSGYTPGTINITWLEDGQVMDVDLSTASTTQEGELASTQSELTLSQKHWLSDRTYTCQVTYQGHTFEDSTKKCADSNGGSGGSLGWDVAELQLNHTGPQQDPRLYWQGGPALGRSFLHGPELDKGQLRIHRDGIYMVHIQVTLAICSSTTASRHHPTTLAVGICSPASRSISLLRLSFHQGCTIASQRLTPLARGDTLCTNLTGTLLPSRNTDETFFGVQWVRPGGGSGGGSLGWDVAELQLNHTGPQQDPRLYWQGGPALGRSFLHGPELDKGQLRIHRDGIYMVHIQVTLAICSSTTASRHHPTTLAVGICSPASRSISLLRLSFHQGCTIASQRLTPLARGDTLCTNLTGTLLPSRNTDETFFGVQWVRPGGGSGGGSLGWDVAELQLNHTGPQQDPRLYWQGGPALGRSFLHGPELDKGQLRIHRDGIYMVHIQVTLAICSSTTASRHHPTTLAVGICSPASRSISLLRLSFHQGCTIASQRLTPLARGDTLCTNLTGTLLPSRNTDETFFGVQWVRP
notes: From HEK293; Ig kappa leader left out; dimer through EHD2, about 50% covalently linked, SEC major peak at monomer size; also called EHD2-scDuokine scCD40L-EHD2-scCD27L; not shown: N-terminal FLAG tag
